In patent US9994881B2, “Functionalized carboxylic acids and alcohols by reverse fatty acid oxidation in engineered microbes” (William Marsh Rice University, priority 2011, dated 2018):
Marks after values point to notes of the source that are not given here.

B1: FadM: E. coli long-chain acyl-CoA thioesterase (protein, UniProt P77712 1-132, looked up)
Long-chain acyl-CoA …: MQTQIKVRGYHLDVYQHVNNARYLEFLEEARWDGLENSDSFQWMTAHNIAFVVVNININYRRPAVLSDLLTITSQLQQLNGKSGILSQVITLEPEGQVVADALITFVCIDLKTQKALALEGELREKLEQMVK
B2: YciA: E. coli acyl-CoA thioesterase (protein, UniProt P0A8Z0 1-132, looked up)
Acyl-CoA thioester hydrolase …: MSTTHNVPQGDLVLRTLAMPADTNANGDIFGGWLMSQMDIGGAILAKEIAHGRVVTVRVEGMTFLRPVAVGDVVCCYARCVQKGTTSVSINIEVWVKKVASEPIGQRYKATEALFKYVAVDPEGKPRALPVE
B3: TesA: E. coli multifunctional acyl-CoA thioesterase I and protease I and lysophospholipase L1 (protein, UniProt P0ADA1 27-208, looked up)
Thioesterase 1/protease …: ADTLLILGDSLSAGYRMSASAAWPALLNDKWQSKTSVVNASISGDTSQQGLARLPALLKQHQPRWVLVELGGNDGLRGFQPQQTEQTLRQILQDVKAANAEPLLMQIRLPANYGRRYNEAFSAIYPKLAKEFDVPLLPFFMEEVYLKPQWMQDDGIHPNRDAQPFIADWMAKQLQPLVNHDS
B4: YdiI: E. coli Acyl-CoA thioesterase (protein, UniProt P77781 1-136, looked up)
1,4-dihydroxy-2-naphthoyl-CoA …: MIWKRKITLEALNAMGEGNMVGFLDIRFEHIGDDTLEATMPVDSRTKQPFGLLHGGASVVLAESIGSVAGYLCTEGEQKVVGLEINANHVRSAREGRVRGVCKPLHLGSRHQVWQIEIFDEKGRLCCSSRLTTAIL

What was measured:
[1] = thioesterase activity (production of TNB at 412 nm); assay type: biochemical; details: crude cell extract; 200 μM substrate; expressed from pCA24N
Excerpt: (§1) For AtoB and thioesterase characterization assays, the pCA24N-gene (-gfp) plasmids from the ASKA collection^44 were used. For expression of E. gracilis TER for kinetic characterization, the egTER gene was cloned into pTrcHis2A using the In-Fusion protocol (Clontech Laboratories, Inc., Mountain View, Calif.) following PCR amplification from the aforementioned codon-optimized egTER containing plasmid with the primer pair of F1pTH6hisEgter and R1pTH6hisEgter (Supplementary Table S3).
(§2) Cultures for enzymatic assays were grown overnight in 100 mL of LB media at 37° C. in 250 mL baffled flasks (Wheaton Industries, Inc., Millville, N.J.) in E. coli BL21 (DE3) cells induced with either 1 mM IPTG (pCA24N, pTrcHis2A) or 1 mM Arabinose (pUCBB-pBAD) at an OD600˜0.6, or expressed constitutively (pUCBB-ntH6). Reactions were monitored on either a Synergy HT plate reader (BioTek Instruments, Inc., Winooski, Vt.) at 25° C. (for reactions monitored at 300 nm or higher) or in a Biomate 5 Spectrophotometer (Thermo Scientific, Waltham, Mass.) for reactions at 263 nm.
(§3) For specific activity assays (reported in μmol substrate/mg protein/min) these supernatant fractions were utilized and protein concentration was established using the Bradford Reagent (Thermo Scientific, Waltham, Mass.) using BSA as the protein standard. Linearity was established for each reaction and the background non-enzymatic rate was subtracted to establish the activity.
(§4) Thioesterase activity was monitored by following the production of TNB at 412 nm ([…])^30. Reactions were carried out in the presence of 100 mM Tris pH 7.5, 200 mM KCl, […] DTNB and 200 μM of the ‘-CoA’ substrate in a volume of 200 μL at 25° C.

[2] = as above; assay type: biochemical; details: expressed from pCA24N; for Specific activities of selected thioesterases on Acetoacetyl-CoA / Specific activities of selected thioesterases on Acetyl-CoA / Specific activities of selected thioesterases on Butyryl-CoA / Specific activities of selected thioesterases on Crotonyl-CoA / Specific activities of selected thioesterases on RS-3-Hydroxybutyryl-CoA: crude cell extract, 200 μM substrate; for Specific Activity: Table 1
Excerpt: as §1, §2, §3
For kinetic characterization, an appropriate amount of enzyme was established by checking linear range near predicted KM values. Then, the rates were measured for a range of substrates in order to establish kcat and KM. In the cases of FadB for the crotonase reaction and FadA in the “forward” thiolase reaction coupled with HBD, substrate saturation could not be established, as such, the kcat/KM for the reaction was determined by dividing the linear slope of Velocity vs. [Substrate] by the amount of enzyme used in the assays. For reactions that could be saturated, Velocity vs. [Substrate] was fitted by the EnzKIN Matlab module (mathworks.com/matlabcentral/fileexchange/26653) to establish Vmax and KM.
as §4

Molecule | Specific activities of selected thioesterases on Decanyl-CoA [1] | Specific activities of selected thioesterases on Acetoacetyl-CoA [2] | Specific activities of selected thioesterases on Acetyl-CoA [2] | Specific activities of selected thioesterases on Butyryl-CoA [2] | Specific activities of selected thioesterases on Crotonyl-CoA [2] | Specific activities of selected thioesterases on RS-3-Hydroxybutyryl-CoA [2] | Specific Activity ([2]; substrate Acetoacetyl-CoA) | Specific Activity ([2]; substrate Acetyl-CoA) | Specific Activity ([2]; substrate Butyryl-CoA) | Specific Activity ([2]; substrate Crotonyl-CoA) | Specific Activity ([2]; substrate RS-3-Hydroxybutyryl-CoA)
B1 | 0.034 ± 0.003 μmol/mg protein/min | 0.042 ± 0.004 μmol/mg protein/min | 0.0331 ± 0.0006 μmol/mg protein/min | 0.027 ± 0.001 μmol/mg protein/min | 0.0017 ± 0.0003 μmol/mg protein/min | 0.009 ± 0.002 μmol/mg protein/min | – | – | – | – | –
B2 | 3.7 ± 0.3 μmol/mg protein/min | 0.672 ± 0.007 μmol/mg protein/min | 0.222 ± 0.007 μmol/mg protein/min | 2.9 ± 0.2 μmol/mg protein/min | 0.27 ± 0.03 μmol/mg protein/min | 0.441 ± 0.009 μmol/mg protein/min | 0.672 ± 0.007^b μmol/mg/min | 0.222 ± 0.007^b μmol/mg/min | 2.9 ± 0.2^b μmol/mg/min | 0.27 ± 0.03^b μmol/mg/min | 0.441 ± 0.009^b μmol/mg/min
B3 | 0.47 ± 0.04 μmol/mg protein/min | 0.044 ± 0.005 μmol/mg protein/min | 0.036 ± 0.002 μmol/mg protein/min | 0.049 ± 0.002 μmol/mg protein/min | 0.007 ± 0.003 μmol/mg protein/min | 0.02 ± 0.01 μmol/mg protein/min | – | – | – | – | –
B4 | 0.18 ± 0.04 μmol/mg protein/min | 0.047 ± 0.001 μmol/mg protein/min | 0.036 ± 0.003 μmol/mg protein/min | 0.0917 ± 0.0007 μmol/mg protein/min | 0.078 ± 0.005 μmol/mg protein/min | 0.012 ± 0.002 μmol/mg protein/min | – | – | – | – | –
